T1: FcγRIIb (human, UniProt P31994 43-217)
T1 construct: extracellular domain; also called 2b; FcgRIIb
T1 sequence (looked up): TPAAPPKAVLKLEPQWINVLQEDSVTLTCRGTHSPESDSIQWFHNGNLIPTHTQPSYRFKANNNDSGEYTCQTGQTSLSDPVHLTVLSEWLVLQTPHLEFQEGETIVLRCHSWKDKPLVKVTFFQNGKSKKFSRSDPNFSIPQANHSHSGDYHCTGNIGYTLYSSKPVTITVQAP

B1: GpH7-A5/GpH7-B3 variant N325_20W/GpL16-k0 (antibody, human IgG1, kappa)
heavy 1: not shown
heavy 2: not shown
light: DIVMTQSPLSLPVTPGEPASISCQASESLVHSNRNTYLHWYLQKPGQSPQLLIYKVSNRFSGVPDRFSGSGSGTDFTLKISRVEAEDVGVYYCSQNTHVPPTFGQGTKVEIERTVAAPSVFIFPPSDEQLKSGTASVVCLLNNFYPREAKVQWKVDNALQSGNSQESVTEQDSKDSTYSLSSTLTLSKADYEKHKVYACEVTHQGLSSPVTKSFNRGEC
notes: also called He Ab N325_20W
B2: GpH7-A5/GpH7-B3 variant L328_13S/GpL16-k0 (antibody, human IgG1, kappa)
heavy 1: not shown
heavy 2: not shown
light: B1 light
notes: also called He Ab L328_13S
B3: GpH7-A5/GpH7-B3 variant L328_09D/GpL16-k0 (antibody, human IgG1, kappa)
heavy 1: not shown
heavy 2: not shown
light: B1 light
notes: also called He Ab L328_09D
B4: GpH7-A5/GpH7-B3 variant L235_09D/GpL16-k0 (antibody, human IgG1, kappa)
heavy 1: not shown
heavy 2: not shown
light: B1 light
notes: also called He Ab L235_09D
B5: GpH7-A5/GpH7-B3 variant K326_08L/GpL16-k0 (antibody, human IgG1, kappa)
heavy 1: not shown
heavy 2: not shown
light: B1 light
notes: also called He Ab K326_08L
B6: GpH7-A5/GpH7-B3 variant N325_01G/GpL16-k0 (antibody, human IgG1, kappa)
heavy 1: not shown
heavy 2: not shown
light: B1 light
notes: also called He Ab N325_01G
B7: GpH7-A5/GpH7-B3 variant S267_06M/GpL16-k0 (antibody, human IgG1, kappa)
heavy 1: not shown
heavy 2: not shown
light: B1 light
notes: also called He Ab S267_06M
B8: GpH7-A5/GpH7-B3 variant P238_20W/GpL16-k0 (antibody, human IgG1, kappa)
heavy 1: not shown
heavy 2: not shown
light: B1 light
notes: also called He Ab P238_20W
B9: GpH7-A5/GpH7-B3 variant N325_09D/GpL16-k0 (antibody, human IgG1, kappa)
heavy 1: not shown
heavy 2: not shown
light: B1 light
notes: also called He Ab N325_09D
B10: GpH7-A5/GpH7-B3 variant S239_03V/GpL16-k0 (antibody, human IgG1, kappa)
heavy 1: not shown
heavy 2: not shown
light: B1 light
notes: also called He Ab S239_03V
B11: GpH7-A5/GpH7-B3 variant S298_06M/GpL16-k0 (antibody, human IgG1, kappa)
heavy 1: not shown
heavy 2: not shown
light: B1 light
notes: also called He Ab S298_06M
B12: GpH7-A5/GpH7-B3 variant N325_13S/GpL16-k0 (antibody, human IgG1, kappa)
heavy 1: not shown
heavy 2: not shown
light: B1 light
notes: also called He Ab N325_13S
B13: GpH7-A5/GpH7-B3 variant P331_16H/GpL16-k0 (antibody, human IgG1, kappa)
heavy 1: not shown
heavy 2: not shown
light: B1 light
notes: also called He Ab P331_16H
B14: GpH7-A5/GpH7-B3 variant N325_08L/GpL16-k0 (antibody, human IgG1, kappa)
heavy 1: not shown
heavy 2: not shown
light: B1 light
notes: also called He Ab N325_08L
B15: GpH7-A5/GpH7-B3 variant P238_03V/GpL16-k0 (antibody, human IgG1, kappa)
heavy 1: not shown
heavy 2: not shown
light: B1 light
notes: also called He Ab P238_03V
B16: GpH7-A5/GpH7-B3 variant N325_04F/GpL16-k0 (antibody, human IgG1, kappa)
heavy 1: not shown
heavy 2: not shown
light: B1 light
notes: also called He Ab N325_04F
B17: GpH7-A5/GpH7-B3 variant P238_10E/GpL16-k0 (antibody, human IgG1, kappa)
heavy 1: not shown
heavy 2: not shown
light: B1 light
notes: also called He Ab P238_10E
B18: GpH7-A5/GpH7-B3 variant K326_20W/GpL16-k0 (antibody, human IgG1, kappa)
heavy 1: not shown
heavy 2: not shown
light: B1 light
notes: also called He Ab K326_20W
B19: GpH7-A5/GpH7-B3 variant I332_02A/GpL16-k0 (antibody, human IgG1, kappa)
heavy 1: not shown
heavy 2: not shown
light: B1 light
notes: also called He Ab I332_02A
B20: GpH7-A5/GpH7-B3 variant P331_03V/GpL16-k0 (antibody, human IgG1, kappa)
heavy 1: not shown
heavy 2: not shown
light: B1 light
notes: also called He Ab P331_03V
B21: GpH7-A5/GpH7-B3 variant P238_04F/GpL16-k0 (antibody, human IgG1, kappa)
heavy 1: not shown
heavy 2: not shown
light: B1 light
notes: also called He Ab P238_04F
B22: GpH7-A5/GpH7-B3 variant L234_10E/GpL16-k0 (antibody, human IgG1, kappa)
heavy 1: not shown
heavy 2: not shown
light: B1 light
notes: also called He Ab L234_10E
B23: GpH7-A5/GpH7-B3 variant P271_10E/GpL16-k0 (antibody, human IgG1, kappa)
heavy 1: not shown
heavy 2: not shown
light: B1 light
notes: also called He Ab P271_10E
B24: GpH7-A5/GpH7-B3 variant N325_06M/GpL16-k0 (antibody, human IgG1, kappa)
heavy 1: not shown
heavy 2: not shown
light: B1 light
notes: also called He Ab N325_06M
B25: GpH7-A5/GpH7-B3 variant S267_19Q/GpL16-k0 (antibody, human IgG1, kappa)
heavy 1: not shown
heavy 2: not shown
light: B1 light
notes: also called He Ab S267_19Q
B26: GpH7-A5/GpH7-B3 variant L328_02A/GpL16-k0 (antibody, human IgG1, kappa)
heavy 1: not shown
heavy 2: not shown
light: B1 light
notes: also called He Ab L328_02A
B27: GpH7-A5/GpH7-B3 variant L234_20W/GpL16-k0 (antibody, human IgG1, kappa)
heavy 1: not shown
heavy 2: not shown
light: B1 light
notes: also called He Ab L234_20W
B28: GpH7-A5/GpH7-B3 variant P238_15Y/GpL16-k0 (antibody, human IgG1, kappa)
heavy 1: not shown
heavy 2: not shown
light: B1 light
notes: also called He Ab P238_15Y

These binders were tested against T1, FcγRIIb (assay: SPR (Biacore), binding relative to GpH7-A5/GpH7-B3/GpL16-k0 = 100).
Procedure: Analysis of interaction between objective antibody and the FcγR was carried out using Biacore T100 (GE Healthcare). HBS-EP+ (GE Healthcare) was used as the running buffer, and the measurement temperature was set to 25° C. Chips produced by immobilizing the antigen peptide by the amine coupling method to a Series S Sencor Chip CM5 (GE Healthcare), or alternatively, chips produced by allowing preliminarily biotinylated antigen peptides to interact with and immobilize onto a Series S Sensor Chip SA (certified) (GE Healthcare) were used. Antibodies of interest were captured onto an antigen peptide-immobilized chip, and allowed to interact to each FcγR diluted with running buffer. To regenerate and repeatedly use the chip, the antibodies captured on the chip were washed off by reacting 10 mM glycine-HCl, pH 1.5.
The FcγR-binding activity of each antibody was assessed primarily using as an indicator the FcγR-binding activity and dissociation constant for FcγR.

He/Con_2b	Binder
169 % of control	B1
149 % of control	B2
199 % of control	B3
106 % of control	B4
177 % of control	B5
101 % of control	B6
210 % of control	B7
123 % of control	B8
124 % of control	B9
108 % of control	B10
102 % of control	B11
177 % of control	B12
116 % of control	B13
197 % of control	B14
120 % of control	B15
143 % of control	B16
232 % of control	B17
148 % of control	B18
103 % of control	B19
119 % of control	B20
312 % of control	B21
118 % of control	B22
109 % of control	B23
217 % of control	B24
218 % of control	B25
144 % of control	B26
114 % of control	B27
218 % of control	B28

Reference: US20180155451A1 (published 2018)
